Source: US12698507B2, “Methods and compositions for conferring and/or enhancing herbicide tolerance using protoporphyrinogen IX oxidase of various cyanobacteria or variant thereof” (FarmHannong Co., Ltd., priority 2019, dated 2026)

The molecules below were run on PPO-deficient BT3 E. coli (ΔPPO) (assay: PPO-inhibiting herbicide tolerance test of PPO variants in E. coli (growth on herbicide-containing LB agar)). Settings: CyPPO19 variants in BT3 (ΔPPO) E. coli; LB agar with 0 to 2,000 μM herbicide, 37° C., dark, 16-20 hours.
Type: cell-based
Procedure, shortened: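 Transformants were grown to OD600 0.5–1, adjusted to OD600=0.5 and spotted as 10-fold dilutions on LB agar with ampicillin (100 μg/mL) and 0 to 2,000 μM herbicide. Plates were kept at 37° C in the dark for 16-20 hours; growth was scored relative to wild type, one '+' per 10-fold resistance.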

Molecule	tolerance level relative to wild type, Carfentrazone	tolerance level relative to wild type, Flumioxazin	tolerance level relative to wild type, Fomesafen	tolerance level relative to wild type, Oxyfluorfen	tolerance level relative to wild type, Saflufenacil	tolerance level relative to wild type, Sulfentrazone	tolerance level relative to wild type, Tiafenacil
CyPPO19 V165S + F360V: variant of CyPPO19 PPO protein (SEQ ID NO: 1) (protein, Synthetic_PPO of Thermosynechococcus elongatus PKUAC-SCTE542 (comprising GenBank No. CP032152.1)) MSEVDVAIVGGGLSGLSLAWRLQQSAPQYSVVLLEASDRLGGNITTQTAEGFVWELGPNSFAPTPALLQLIAEVGLQSELIRGDRHLPRYIYWRGQLYPLQPTRPLALATSNLLSPWGKVRAALGALGFVPPYLGSGDESVNSFFRRHLGQEVAERLVAPFVSGSYAGDPQQLSAAAAFRRIAQLEKLGGGLIAGALHLRRQQAPKPKPPTSVQMRPGELGSFKEGLAALPRAIAQQLKAPIHLQTPVQEITPDPKGGYLLRSGEQTWRARSVVLATPAYQTAELVAPFQPAIARVLATIPYPTVACVVLAYPAGLGRSVRPGFGVLIPRSQGIRTLGTIWSSCLFPQRTPAGWQVFTSVIGGATDPDLASLSEEAIVQQVQQDLNRLLDLPAAKARLLGMKVWRRAIPQYMVGYPEQWQQVTHALSQTPGLFLCSNYAEGVALGDRVEHGNRTAAAVAAYLSGGQP	+ (‘+’ per each 10-fold resistance)	++++ (‘+’ per each 10-fold resistance)	+ (‘+’ per each 10-fold resistance)	++ (‘+’ per each 10-fold resistance)	++++ (‘+’ per each 10-fold resistance)	++++ (‘+’ per each 10-fold resistance)	++++ (‘+’ per each 10-fold resistance)
CyPPO19 V165S + A167C + L327T + F360M: variant of CyPPO19 PPO protein (SEQ ID NO: 1) (protein, Synthetic_PPO of Thermosynechococcus elongatus PKUAC-SCTE542 (comprising GenBank No. CP032152.1)) MSEVDVAIVGGGLSGLSLAWRLQQSAPQYSVVLLEASDRLGGNITTQTAEGFVWELGPNSFAPTPALLQLIAEVGLQSELIRGDRHLPRYIYWRGQLYPLQPTRPLALATSNLLSPWGKVRAALGALGFVPPYLGSGDESVNSFFRRHLGQEVAERLVAPFVSGSYCGDPQQLSAAAAFRRIAQLEKLGGGLIAGALHLRRQQAPKPKPPTSVQMRPGELGSFKEGLAALPRAIAQQLKAPIHLQTPVQEITPDPKGGYLLRSGEQTWRARSVVLATPAYQTAELVAPFQPAIARVLATIPYPTVACVVLAYPAGLGRSVRPGFGVTIPRSQGIRTLGTIWSSCLFPQRTPAGWQVFTSMIGGATDPDLASLSEEAIVQQVQQDLNRLLDLPAAKARLLGMKVWRRAIPQYMVGYPEQWQQVTHALSQTPGLFLCSNYAEGVALGDRVEHGNRTAAAVAAYLSGGQP	+ (‘+’ per each 10-fold resistance)	++++ (‘+’ per each 10-fold resistance)	++ (‘+’ per each 10-fold resistance)	++ (‘+’ per each 10-fold resistance)	++++ (‘+’ per each 10-fold resistance)	++++ (‘+’ per each 10-fold resistance)	++++ (‘+’ per each 10-fold resistance)
CyPPO19 A167I + V305L + L327T + F360V: variant of CyPPO19 PPO protein (SEQ ID NO: 1) (protein, Synthetic_PPO of Thermosynechococcus elongatus PKUAC-SCTE542 (comprising GenBank No. CP032152.1)) MSEVDVAIVGGGLSGLSLAWRLQQSAPQYSVVLLEASDRLGGNITTQTAEGFVWELGPNSFAPTPALLQLIAEVGLQSELIRGDRHLPRYIYWRGQLYPLQPTRPLALATSNLLSPWGKVRAALGALGFVPPYLGSGDESVNSFFRRHLGQEVAERLVAPFVSGVYIGDPQQLSAAAAFRRIAQLEKLGGGLIAGALHLRRQQAPKPKPPTSVQMRPGELGSFKEGLAALPRAIAQQLKAPIHLQTPVQEITPDPKGGYLLRSGEQTWRARSVVLATPAYQTAELVAPFQPAIARVLATIPYPTLACVVLAYPAGLGRSVRPGFGVTIPRSQGIRTLGTIWSSCLFPQRTPAGWQVFTSVIGGATDPDLASLSEEAIVQQVQQDLNRLLDLPAAKARLLGMKVWRRAIPQYMVGYPEQWQQVTHALSQTPGLFLCSNYAEGVALGDRVEHGNRTAAAVAAYLSGGQP	+ (‘+’ per each 10-fold resistance)	+++++ (until ‘+++++’ as maximal resistance)	+++ (‘+’ per each 10-fold resistance)	+++ (‘+’ per each 10-fold resistance)	++++ (‘+’ per each 10-fold resistance)	++++ (‘+’ per each 10-fold resistance)	+++++ (until ‘+++++’ as maximal resistance)
CyPPO19 A167L + V305M + I408R + F360M: variant of CyPPO19 PPO protein (SEQ ID NO: 1) (protein, Synthetic_PPO of Thermosynechococcus elongatus PKUAC-SCTE542 (comprising GenBank No. CP032152.1)) MSEVDVAIVGGGLSGLSLAWRLQQSAPQYSVVLLEASDRLGGNITTQTAEGFVWELGPNSFAPTPALLQLIAEVGLQSELIRGDRHLPRYIYWRGQLYPLQPTRPLALATSNLLSPWGKVRAALGALGFVPPYLGSGDESVNSFFRRHLGQEVAERLVAPFVSGVYLGDPQQLSAAAAFRRIAQLEKLGGGLIAGALHLRRQQAPKPKPPTSVQMRPGELGSFKEGLAALPRAIAQQLKAPIHLQTPVQEITPDPKGGYLLRSGEQTWRARSVVLATPAYQTAELVAPFQPAIARVLATIPYPTMACVVLAYPAGLGRSVRPGFGVLIPRSQGIRTLGTIWSSCLFPQRTPAGWQVFTSMIGGATDPDLASLSEEAIVQQVQQDLNRLLDLPAAKARLLGMKVWRRARPQYMVGYPEQWQQVTHALSQTPGLFLCSNYAEGVALGDRVEHGNRTAAAVAAYLSGGQP	+ (‘+’ per each 10-fold resistance)	+++++ (until ‘+++++’ as maximal resistance)	+++ (‘+’ per each 10-fold resistance)	+++ (‘+’ per each 10-fold resistance)	+++++ (until ‘+++++’ as maximal resistance)	+++++ (until ‘+++++’ as maximal resistance)	+++++ (until ‘+++++’ as maximal resistance)
CyPPO19 V165C + A167C + I408W + F360T: variant of CyPPO19 PPO protein (SEQ ID NO: 1) (protein, Synthetic_PPO of Thermosynechococcus elongatus PKUAC-SCTE542 (comprising GenBank No. CP032152.1)) MSEVDVAIVGGGLSGLSLAWRLQQSAPQYSVVLLEASDRLGGNITTQTAEGFVWELGPNSFAPTPALLQLIAEVGLQSELIRGDRHLPRYIYWRGQLYPLQPTRPLALATSNLLSPWGKVRAALGALGFVPPYLGSGDESVNSFFRRHLGQEVAERLVAPFVSGCYCGDPQQLSAAAAFRRIAQLEKLGGGLIAGALHLRRQQAPKPKPPTSVQMRPGELGSFKEGLAALPRAIAQQLKAPIHLQTPVQEITPDPKGGYLLRSGEQTWRARSVVLATPAYQTAELVAPFQPAIARVLATIPYPTVACVVLAYPAGLGRSVRPGFGVLIPRSQGIRTLGTIWSSCLFPQRTPAGWQVFTSTIGGATDPDLASLSEEAIVQQVQQDLNRLLDLPAAKARLLGMKVWRRAWPQYMVGYPEQWQQVTHALSQTPGLFLCSNYAEGVALGDRVEHGNRTAAAVAAYLSGGQP	+ (‘+’ per each 10-fold resistance)	++++ (‘+’ per each 10-fold resistance)	++ (‘+’ per each 10-fold resistance)	++ (‘+’ per each 10-fold resistance)	++++ (‘+’ per each 10-fold resistance)	+++ (‘+’ per each 10-fold resistance)	++++ (‘+’ per each 10-fold resistance)
CyPPO19 V165C + A167I + V305M + F360V: variant of CyPPO19 PPO protein (SEQ ID NO: 1) (protein, Synthetic_PPO of Thermosynechococcus elongatus PKUAC-SCTE542 (comprising GenBank No. CP032152.1)) MSEVDVAIVGGGLSGLSLAWRLQQSAPQYSVVLLEASDRLGGNITTQTAEGFVWELGPNSFAPTPALLQLIAEVGLQSELIRGDRHLPRYIYWRGQLYPLQPTRPLALATSNLLSPWGKVRAALGALGFVPPYLGSGDESVNSFFRRHLGQEVAERLVAPFVSGCYIGDPQQLSAAAAFRRIAQLEKLGGGLIAGALHLRRQQAPKPKPPTSVQMRPGELGSFKEGLAALPRAIAQQLKAPIHLQTPVQEITPDPKGGYLLRSGEQTWRARSVVLATPAYQTAELVAPFQPAIARVLATIPYPTMACVVLAYPAGLGRSVRPGFGVLIPRSQGIRTLGTIWSSCLFPQRTPAGWQVFTSVIGGATDPDLASLSEEAIVQQVQQDLNRLLDLPAAKARLLGMKVWRRAIPQYMVGYPEQWQQVTHALSQTPGLFLCSNYAEGVALGDRVEHGNRTAAAVAAYLSGGQP	+ (‘+’ per each 10-fold resistance)	++ (‘+’ per each 10-fold resistance)	+ (‘+’ per each 10-fold resistance)	+ (‘+’ per each 10-fold resistance)	++ (‘+’ per each 10-fold resistance)	+ (‘+’ per each 10-fold resistance)	++ (‘+’ per each 10-fold resistance)
